Source: patent US20200369765A1 (INNATE PHARMA, published 2020)

Molecular target: T1, Human Siglec-9 (human, UniProt Q9Y336 18-463)
T1 construct: On transfected CHO cells; also on YTS and KHYG-1 transfectants, primary NK cells and moDC; also called huSiglec-9; CD329
Assay: flow cytometry, CHO Siglec-9 cells, mean n = 2
Method: Binding of humanized antibodies was tested on CHO cells transfected with human Siglec-9, in a titration experiment by flow cytometry. Cells were incubated 90 minutes at 37° C. in Staining Buffer (SB) with primary antibodies at 10 ug/ml and a series of dilution of 1:10. They were washed three times with SB, then incubated 30 minutes with a goat F(ab′)² Anti-human IgG (Fc) PE. EC₅₀ values (μg/ml) for Siglec-9 expressing cells are shown below.

T1 sequence (Q9Y336 18-463): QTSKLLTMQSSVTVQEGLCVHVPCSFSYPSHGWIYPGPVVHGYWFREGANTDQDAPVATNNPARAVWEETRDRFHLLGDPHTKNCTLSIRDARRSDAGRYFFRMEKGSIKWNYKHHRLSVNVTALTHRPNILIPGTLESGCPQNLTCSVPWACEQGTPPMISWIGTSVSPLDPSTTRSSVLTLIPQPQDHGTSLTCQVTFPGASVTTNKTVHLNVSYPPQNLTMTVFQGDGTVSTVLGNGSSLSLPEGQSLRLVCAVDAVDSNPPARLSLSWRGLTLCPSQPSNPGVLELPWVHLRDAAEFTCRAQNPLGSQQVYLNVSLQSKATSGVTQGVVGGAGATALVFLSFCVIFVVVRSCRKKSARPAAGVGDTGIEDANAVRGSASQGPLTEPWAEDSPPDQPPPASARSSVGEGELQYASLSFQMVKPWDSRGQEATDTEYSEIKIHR

Binder | EC50 [µg/mL]
mAbD H1L1 (antibody, V domains shown, constant region not specified) VH: QVQLVQSGSELKKPGASVKVSCKASGYTFTDYSMHWVRQAPGQGLKWMGWIITETGEPTYADDFRGRFVFSLDTSVSTAYLQISSLKAEDTAVYYCARDFDGYWGQGTTVTVSS VL: DIQMTQSPSSLSASVGDRVTITCRASENIYSYLAWYQQKPGKAPKFLIYNAKTLTEGVPSRFSGSGSGTDFTLTISSLQPEDFATYYCQHHYGFPWTFGGGTKVEIK | 0.015
mAbD H0L2 (antibody, V domains shown, constant region not specified) VH: QVQLVQSGSELKKPGASVKVSCKASGYTFTDYSMHWVRQAPGQGLEWMGWIITETGEPTYADDFRGRFVFSLDTSVSTAYLQISSLKAEDTAVYYCARDFDGYWGQGTTVTVSS VL: DIQMTQSPSSLSASVGDRVTITCRASENIYSYLAWYQQKPGKAPKFLIYNAKTLTEGVPSRFRGSGSGTDFTLTISSLQPEDFATYYCQHHYGFPWTFGGGTKVEIK | 0.02
mAbD H1L0 (antibody, V domains shown, constant region not specified) VH: QVQLVQSGSELKKPGASVKVSCKASGYTFTDYSMHWVRQAPGQGLKWMGWIITETGEPTYADDFRGRFVFSLDTSVSTAYLQISSLKAEDTAVYYCARDFDGYWGQGTTVTVSS VL: DIQMTQSPSSLSASVGDRVTITCRASENIYSYLAWYQQKPGKAPKLLIYNAKTLTEGVPSRFSGSGSGTDFTLTISSLQPEDFATYYCQHHYGFPWTFGGGTKVEIK | 0.019
mAbD H0L1 (antibody, V domains shown, constant region not specified) VH: QVQLVQSGSELKKPGASVKVSCKASGYTFTDYSMHWVRQAPGQGLEWMGWIITETGEPTYADDFRGRFVFSLDTSVSTAYLQISSLKAEDTAVYYCARDFDGYWGQGTTVTVSS VL: DIQMTQSPSSLSASVGDRVTITCRASENIYSYLAWYQQKPGKAPKFLIYNAKTLTEGVPSRFSGSGSGTDFTLTISSLQPEDFATYYCQHHYGFPWTFGGGTKVEIK | 0.01
mAbA H1L1 (antibody, V domains shown, constant region not specified) VH: QVQLVQSGAEVKKPGSSVKVSCKASGGTFSSYWMHWVRQAPGQGLEWMGEINPSNGHTNYNEKFESRVTITADESTSTAYMELSSLRSEDTAVYYCANGVESYDFDDALDYWGQGTTVTVSS VL: DIQMTQSPSSLSASVGDRVTITCRASQDINNYLNWYQQKPGKAPKLLIYYTSRLHSGVPSRFSGSGSGTDYTFTISSLQPEDIATYYCQQGNTLPFTFGGGTKVEIK | 0.033
mAbA H3L1 (antibody, V domains shown, constant region not specified) VH: QVQLVQSGAEVKKPGSSVKVSCKASYFTFSSYWMHWVRQAPGQGLEWMGEINPSNGHTNYNEKFESRVTITADRSTSTAYMELSSLRSEDTAVYYCANGVESYDFDDALDYWGQGTTVTVSS VL: DIQMTQSPSSLSASVGDRVTITCRASQDINNYLNWYQQKPGKAPKLLIYYTSRLHSGVPSRFSGSGSGTDYTFTISSLQPEDIATYYCQQGNTLPFTFGGGTKVEIK | 0.044
mAbA H2L0 (antibody, V domains shown, constant region not specified) VH: QVQLVQSGAEVKKPGSSVKVSCKASYFTFSSYWMHWVRQAPGQGLEWMGEINPSNGHTNYNEKFESRVTITADESTSTAYMELSSLRSEDTAVYYCANGVESYDFDDALDYWGQGTTVTVSS VL: DIQMTQSPSSLSASVGDRVTITCRASQDINNYLNWYQQKPGKAPKLLIYYTSRLHSGVPSRFSGSGSGTDFTFTISSLQPEDIATYYCQQGNTLPFTFGGGTKVEIK | 0.034
mAbA H2L2 (antibody, V domains shown, constant region not specified) VH: QVQLVQSGAEVKKPGSSVKVSCKASYFTFSSYWMHWVRQAPGQGLEWMGEINPSNGHTNYNEKFESRVTITADESTSTAYMELSSLRSEDTAVYYCANGVESYDFDDALDYWGQGTTVTVSS VL: DIQMTQSPSSLSASVGDRVTITCRASQDINNYLNWYQQKPGKAIKLLIYYTSRLHSGVPSRFSGSGSGTDYTFTISSLQPEDIATYYCQQGNTLPFTFGGGTKVEIK | 0.032
mAbA H1L0 (antibody, V domains shown, constant region not specified) VH: QVQLVQSGAEVKKPGSSVKVSCKASGGTFSSYWMHWVRQAPGQGLEWMGEINPSNGHTNYNEKFESRVTITADESTSTAYMELSSLRSEDTAVYYCANGVESYDFDDALDYWGQGTTVTVSS VL: DIQMTQSPSSLSASVGDRVTITCRASQDINNYLNWYQQKPGKAPKLLIYYTSRLHSGVPSRFSGSGSGTDFTFTISSLQPEDIATYYCQQGNTLPFTFGGGTKVEIK | 0.045
mAbA H3L0 (antibody, V domains shown, constant region not specified) VH: QVQLVQSGAEVKKPGSSVKVSCKASYFTFSSYWMHWVRQAPGQGLEWMGEINPSNGHTNYNEKFESRVTITADRSTSTAYMELSSLRSEDTAVYYCANGVESYDFDDALDYWGQGTTVTVSS VL: DIQMTQSPSSLSASVGDRVTITCRASQDINNYLNWYQQKPGKAPKLLIYYTSRLHSGVPSRFSGSGSGTDFTFTISSLQPEDIATYYCQQGNTLPFTFGGGTKVEIK | 0.12
mAbA H0L2 (antibody, V domains shown, constant region not specified) VH: QVQLVQSGAEVKKPGSSVKVSCKASGGTFSSYWMHWVRQAPGQGLEWMGEINPSNGHTNYNEKFESRVTITADESTSTAYMELSSLRSEDTAVYYCARGVESYDFDDALDYWGQGTTVTVSS VL: DIQMTQSPSSLSASVGDRVTITCRASQDINNYLNWYQQKPGKAIKLLIYYTSRLHSGVPSRFSGSGSGTDYTFTISSLQPEDIATYYCQQGNTLPFTFGGGTKVEIK | 0.034
mAbA H1L2 (antibody, V domains shown, constant region not specified) VH: QVQLVQSGAEVKKPGSSVKVSCKASGGTFSSYWMHWVRQAPGQGLEWMGEINPSNGHTNYNEKFESRVTITADESTSTAYMELSSLRSEDTAVYYCANGVESYDFDDALDYWGQGTTVTVSS VL: DIQMTQSPSSLSASVGDRVTITCRASQDINNYLNWYQQKPGKAIKLLIYYTSRLHSGVPSRFSGSGSGTDYTFTISSLQPEDIATYYCQQGNTLPFTFGGGTKVEIK | 0.037

Second part, the binder after the results:

EC50 [µg/mL] | Binder
0.019 | mAbD H0L0 (antibody, V domains shown, constant region not specified) VH: QVQLVQSGSELKKPGASVKVSCKASGYTFTDYSMHWVRQAPGQGLEWMGWIITETGEPTYADDFRGRFVFSLDTSVSTAYLQISSLKAEDTAVYYCARDFDGYWGQGTTVTVSS VL: DIQMTQSPSSLSASVGDRVTITCRASENIYSYLAWYQQKPGKAPKLLIYNAKTLTEGVPSRFSGSGSGTDFTLTISSLQPEDFATYYCQHHYGFPWTFGGGTKVEIK
0.016 | mAbD H2L1 (antibody, V domains shown, constant region not specified) VH: QVQLVQSGSELKKPGASVKVSCKASGYTFTDYSMHWVRQAPGQGLKWMGWIITETGEPTYADDFRGRFVFSLDTSVSTAYLQISSLKAEDTAVYFCARDFDGYWGQGTTVTVSS VL: DIQMTQSPSSLSASVGDRVTITCRASENIYSYLAWYQQKPGKAPKFLIYNAKTLTEGVPSRFSGSGSGTDFTLTISSLQPEDFATYYCQHHYGFPWTFGGGTKVEIK
0.021 | mAbD H2L2 (antibody, V domains shown, constant region not specified) VH: QVQLVQSGSELKKPGASVKVSCKASGYTFTDYSMHWVRQAPGQGLKWMGWIITETGEPTYADDFRGRFVFSLDTSVSTAYLQISSLKAEDTAVYFCARDFDGYWGQGTTVTVSS VL: DIQMTQSPSSLSASVGDRVTITCRASENIYSYLAWYQQKPGKAPKFLIYNAKTLTEGVPSRFRGSGSGTDFTLTISSLQPEDFATYYCQHHYGFPWTFGGGTKVEIK
0.03 | mAbD H2L0 (antibody, V domains shown, constant region not specified) VH: QVQLVQSGSELKKPGASVKVSCKASGYTFTDYSMHWVRQAPGQGLKWMGWIITETGEPTYADDFRGRFVFSLDTSVSTAYLQISSLKAEDTAVYFCARDFDGYWGQGTTVTVSS VL: DIQMTQSPSSLSASVGDRVTITCRASENIYSYLAWYQQKPGKAPKLLIYNAKTLTEGVPSRFSGSGSGTDFTLTISSLQPEDFATYYCQHHYGFPWTFGGGTKVEIK
0.019 | mAbD H1L2 (antibody, V domains shown, constant region not specified) VH: QVQLVQSGSELKKPGASVKVSCKASGYTFTDYSMHWVRQAPGQGLKWMGWIITETGEPTYADDFRGRFVFSLDTSVSTAYLQISSLKAEDTAVYYCARDFDGYWGQGTTVTVSS VL: DIQMTQSPSSLSASVGDRVTITCRASENIYSYLAWYQQKPGKAPKFLIYNAKTLTEGVPSRFRGSGSGTDFTLTISSLQPEDFATYYCQHHYGFPWTFGGGTKVEIK
0.04 | mAbA H0L0 (antibody, V domains shown, constant region not specified) VH: QVQLVQSGAEVKKPGSSVKVSCKASGGTFSSYWMHWVRQAPGQGLEWMGEINPSNGHTNYNEKFESRVTITADESTSTAYMELSSLRSEDTAVYYCARGVESYDFDDALDYWGQGTTVTVSS VL: DIQMTQSPSSLSASVGDRVTITCRASQDINNYLNWYQQKPGKAPKLLIYYTSRLHSGVPSRFSGSGSGTDFTFTISSLQPEDIATYYCQQGNTLPFTFGGGTKVEIK
0.013 | mAbA H0L1 (antibody, V domains shown, constant region not specified) VH: QVQLVQSGAEVKKPGSSVKVSCKASGGTFSSYWMHWVRQAPGQGLEWMGEINPSNGHTNYNEKFESRVTITADESTSTAYMELSSLRSEDTAVYYCARGVESYDFDDALDYWGQGTTVTVSS VL: DIQMTQSPSSLSASVGDRVTITCRASQDINNYLNWYQQKPGKAPKLLIYYTSRLHSGVPSRFSGSGSGTDYTFTISSLQPEDIATYYCQQGNTLPFTFGGGTKVEIK
0.029 | mAbA H2L1 (antibody, V domains shown, constant region not specified) VH: QVQLVQSGAEVKKPGSSVKVSCKASYFTFSSYWMHWVRQAPGQGLEWMGEINPSNGHTNYNEKFESRVTITADESTSTAYMELSSLRSEDTAVYYCANGVESYDFDDALDYWGQGTTVTVSS VL: DIQMTQSPSSLSASVGDRVTITCRASQDINNYLNWYQQKPGKAPKLLIYYTSRLHSGVPSRFSGSGSGTDYTFTISSLQPEDIATYYCQQGNTLPFTFGGGTKVEIK
0.074 | mAbA H3L2 (antibody, V domains shown, constant region not specified) VH: QVQLVQSGAEVKKPGSSVKVSCKASYFTFSSYWMHWVRQAPGQGLEWMGEINPSNGHTNYNEKFESRVTITADRSTSTAYMELSSLRSEDTAVYYCANGVESYDFDDALDYWGQGTTVTVSS VL: DIQMTQSPSSLSASVGDRVTITCRASQDINNYLNWYQQKPGKAIKLLIYYTSRLHSGVPSRFSGSGSGTDYTFTISSLQPEDIATYYCQQGNTLPFTFGGGTKVEIK
